In paper PMC8776815, “Rational design of a helical peptide inhibitor targeting c-Myb–KIX interaction” (Scientific Reports, 2022):
No end group written: not given here.

Experiments:
[1] = molecular target: T1, KIX domain of CBP (c-Myb/pKID site) (Mus musculus, UniProt P45481); assay: Isothermal titration calorimetry (ITC) of KIX binding of Myb32 peptides; details: 20 mM Tris-acetate pH 7.0, 50 mM NaCl, 30 °C, 600 μM Myb32 into 45 µM KIX + 90 µM MLL28, mean ± standard error, more than two measurements, read-out: Kd (dissociation constant for KIX binding)
T1 construct: KIX (residues 586–672 of mouse CBP); 6xHis-tag with thrombin cleavage site (MGHHHHHHSSGLVPR) (N); made in house; host or cells: E. coli BL21(DE3)pLysS for KIX; E. coli BL21(DE3) for MLL28
Text: Next, we performed isothermal titration calorimetry (ITC) measurements to investigate the KIX-binding affinity of the peptides. Although Myb32 primarily binds the c-Myb/pKID site on KIX, previous studies have shown that it also binds the MLL site, located opposite the c-Myb/pKID site[38]. Therefore, to prevent the secondary binding of Myb32, we conducted all ITC experiments in the presence of the MLL TAD peptide (residues 2842–2869, called MLL28) with a two-fold excess of MLL over KIX[38].
ITC measurements were conducted using a MicroCal iTC200 (Malvern Panalytical Ltd., Malvern, United Kingdom) in ITC buffer at 30 °C. All samples were dialyzed sufficiently before the experiments. 600 μM Myb32 was titrated into the cell containing 45 µM KIX and 90 µM MLL28. The data were analyzed using Origin software (OriginLab Co., Northampton, MA, USA) to obtain the Kd, stoichiometry of binding (N), and enthalpy change upon binding (ΔH). The Gibbs free energy change (ΔG) and entropy change (ΔS) upon binding were obtained as follows:3 ΔG=-RTln1/Kd 4 ΔS=ΔH-ΔG/T where R is the gas constant, and T is the temperature.

CBP KIX (Mus musculus) = CBP KIX (Mus musculus) (UniProt P45481); details: cited from earlier work
KIX = details: previous studies; read-out: Kd (dissociation constant for KIX binding); cited from earlier work
Text: Although the c-Myb TAD is intrinsically disordered, the region of residues 284–315, called Myb32, has a high helical propensity. […] Moreover, Myb32 is known to bind KIX by a conformational selection mechanism. This information may provide a clue to improve the binding affinity to KIX[38],[40]. Therefore, Myb32 is a suitable template for designing peptide inhibitors.

[2] = molecular target: T2, KIX domain of CREB-binding protein (residues 586-672 of mouse CBP) without a His-tag (mouse, UniProt P45481 586-672); assay: SPR; competitive binding assay (OpenSPR, localized SPR); His-tag-GB1-Myb32 wild type immobilised by amine coupling; 1 uM KIX without His-tag injected alone or mixed with inhibitor (1 nM to 300 uM); 20 mM sodium phosphate pH 7.0, 300 mM NaCl; 30 °C; details: both partners purified
T2 construct: KIX domain, residues 586-672 of mouse CBP; the thrombin site ends in LVPR followed by G586 of KIX; also called KIX without a His-tag; source: E. coli BL21(DE3)pLysS, purified (Ni-NTA, thrombin cleavage, size exclusion chromatography); not shown: His6, N-terminal, cleaved

[3] = molecular target: T3, KIX domain of CBP in the presence of the MLL TAD peptide MLL28 (two-fold excess of MLL28 over KIX) (mouse | human, UniProt P45481 586-672; Q03164 2842-2869); assay: ITC; 600 uM Myb32 peptide titrated into the cell with 45 uM KIX and 90 uM MLL28; 20 mM Tris-acetate pH 7.0, 50 mM NaCl; 30 °C; details: both partners purified
T3 construct: KIX domain, residues 586-672 of mouse CBP; single Tyr residue attached at the C-terminus of MLL28 for concentration determination; A Gly left at the N-terminus after thrombin cleavage is stated only for Myb32, it is likely on MLL28 too; also called KIX and MLL28; source: E. coli BL21(DE3)pLysS (KIX) and BL21(DE3) (MLL28), each purified; 45 uM KIX and 90 uM MLL28 together in the ITC cell; not …

[4] = molecular target: T3, KIX domain of CBP in the presence of …; assay: ITC; under the conditions of the SPR measurement: 20 mM sodium phosphate pH 7.0, 300 mM NaCl; in the presence of MLL28 (all ITC experiments); details: both partners purified

T3 sequence (P45481 586-672, chain 1 of 2): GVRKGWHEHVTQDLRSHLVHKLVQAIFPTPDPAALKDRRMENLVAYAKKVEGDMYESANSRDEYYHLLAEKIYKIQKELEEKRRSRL
T3 sequence (Q03164 other isoform, or with tags, fused parts or gaps, chain 2 of 2): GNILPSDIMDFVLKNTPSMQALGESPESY
T2 sequence (P45481 586-672): as the sequence (P45481 586-672, chain 1 of 2) above
Chain of c-Myb TAD TAD (P06876 275-327): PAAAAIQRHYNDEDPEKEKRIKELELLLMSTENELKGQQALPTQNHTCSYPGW
Chain of CBP KIX (Mus musculus) (P45481 583-668): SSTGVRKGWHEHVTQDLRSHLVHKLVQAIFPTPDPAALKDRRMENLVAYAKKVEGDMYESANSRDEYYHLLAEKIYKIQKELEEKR

Row | Kd [3] | dH [3] | stoichiometry N [3] | Molecule | other results
1 | – | – | – | GYNDEDPEKEKRIKELELLLMSTENELKGQQAL [WT] | Kd [1]: 220 ± 10 nM
2 | – | – | – | c-Myb TAD TAD (from UniProt P06876) | Kd (CBP KIX (Mus musculus)): 500 nM
3 | – | – | – | c-Myb TAD full length: full-length transactivation domain of c-Myb (residues 275–327), intrinsically disordered (PAAAAIQRHYNDEDPEKEKRIKELELLLMSTENELKGQQVLPTQNHTCSYPGW; transactivation domain; UniProt P10242 275-327, looked up, fragment) | Kd (KIX): 500 nM
4 | – | – | – | GYNDEDPEKERRIKELELLLMSTENELKGQQAL [K293R] | Kd [1]: 220 ± 10 nM
5 | – | – | – | YNDEDPEKEKRIKELELLLMSTENELKGQQAL (Myb32, residues 284-315 of mouse c-Myb; 6xHis-tag, B1 domain of protein G and the thrombin cleavage site stand before Myb32; coupled to the chip by amine coupling; also called immobilized wild-type Myb32; His-tagged Myb32 protein; source: E. coli BL21(DE3), purified (Ni-NTA, eluted with imidazole); not shown: His6, N-terminal, kept; GB1, N-terminal, kept) [His-tag-GB1-Myb32 (wild-type Myb32 with a His-tag and GB1)] | binding result [2]: binds
6 | 220 nM | -6.49 kcal mol^–1 | 0.97 | GYNDEDPEKEKRIKELELLLMSTENELKGQQAL (additional Gly residue left at the N-terminus after thrombin cleavage; Myb32, residues 284-315 of mouse c-Myb; 33-residue peptide (Gly + 32 residues); also called WT; wild-type Myb32; source: E. coli BL21(DE3), purified (Ni-NTA, thrombin cleavage on the column, DEAE anion exchange); not shown: His6, N-terminal, cleaved; GB1, N-terminal, cleaved) [Myb32 wild type (residues 284-315 of mouse c-Myb, transactivation domain fragment)] | Kd [4]: 510 nM; dH [4]: -13.8 kcal mol^–1; stoichiometry N [4]: 0.99; IC50 [2]: 10900 nM
7 | 210 nM | -6.46 kcal mol^–1 | 0.97 | GYNDEDPEREKRIKELELLLMSTENELKGQQAL (additional Gly residue left at the N-terminus after thrombin cleavage; Myb32, residues 284-315 of mouse c-Myb; source: E. coli BL21(DE3), purified (Ni-NTA, thrombin cleavage on the column, DEAE anion exchange); not shown: His6, N-terminal, cleaved; GB1, N-terminal, cleaved) [Myb32 K291R] | –
8 | – | -7.03 kcal mol^–1 | 0.94 | GYNDEDPEKERRIKELELLLMSTENELKGQQAL (additional Gly residue left at the N-terminus after thrombin cleavage; Myb32, residues 284-315 of mouse c-Myb; source: E. coli BL21(DE3), purified (Ni-NTA, thrombin cleavage on the column, DEAE anion exchange); not shown: His6, N-terminal, cleaved; GB1, N-terminal, cleaved) [Myb32 K293R] | –
9 | 480 nM | -5.45 kcal mol^–1 | 0.92 | GYNDEDPEKLKRIKELELLLMSTENELKGQQAL (additional Gly residue left at the N-terminus after thrombin cleavage; Myb32, residues 284-315 of mouse c-Myb; source: E. coli BL21(DE3), purified (Ni-NTA, thrombin cleavage on the column, DEAE anion exchange); not shown: His6, N-terminal, cleaved; GB1, N-terminal, cleaved) [Myb32 E292L] | –
10 | 120 nM | -7.56 kcal mol^–1 | 0.9 | GYNDEDPEREKRIRELELLLMSTENELKGQQAL (additional Gly residue left at the N-terminus after thrombin cleavage; Myb32, residues 284-315 of mouse c-Myb; source: E. coli BL21(DE3), purified (Ni-NTA, thrombin cleavage on the column, DEAE anion exchange); not shown: His6, N-terminal, cleaved; GB1, N-terminal, cleaved) [Myb32 K291R/K296R] | –
11 | 160 nM | -6.3 kcal mol^–1 | 0.96 | GYNDEDPEKEKRIRELELLLMSTENELKGQQAL (additional Gly residue left at the N-terminus after thrombin cleavage; Myb32, residues 284-315 of mouse c-Myb; source: E. coli BL21(DE3), purified (Ni-NTA, thrombin cleavage on the column, DEAE anion exchange); not shown: His6, N-terminal, cleaved; GB1, N-terminal, cleaved) [Myb32 K296R] | –
12 | 80 nM | -7.57 kcal mol^–1 | 0.99 | GYNDEDPERERRIRELELLLMSTENELKGQQAL (additional Gly residue left at the N-terminus after thrombin cleavage; Myb32, residues 284-315 of mouse c-Myb; also called RRR Myb32 mutant; source: E. coli BL21(DE3), purified (Ni-NTA, thrombin cleavage on the column, DEAE anion exchange); not shown: His6, N-terminal, cleaved; GB1, N-terminal, cleaved) [Myb32 K291R/K293R/K296R triple mutant (RRR)] | Kd [4]: 260 nM; dH [4]: -14.8 kcal mol^–1; stoichiometry N [4]: 0.99; IC50 [2]: 5600 nM
13 | 140 nM | -7.31 kcal mol^–1 | 0.84 | GYNDEDPERERRIKELELLLMSTENELKGQQAL (additional Gly residue left at the N-terminus after thrombin cleavage; Myb32, residues 284-315 of mouse c-Myb; source: E. coli BL21(DE3), purified (Ni-NTA, thrombin cleavage on the column, DEAE anion exchange); not shown: His6, N-terminal, cleaved; GB1, N-terminal, cleaved) [Myb32 K291R/K293R] | –
14 | 130 nM | -7.31 kcal mol^–1 | 0.96 | GYNDEDPEKERRIRELELLLMSTENELKGQQAL (additional Gly residue left at the N-terminus after thrombin cleavage; Myb32, residues 284-315 of mouse c-Myb; source: E. coli BL21(DE3), purified (Ni-NTA, thrombin cleavage on the column, DEAE anion exchange); not shown: His6, N-terminal, cleaved; GB1, N-terminal, cleaved) [Myb32 K293R/K296R] | –
